pKd: −log10 of the molar value.
Experiments:
[1] = biological target: AP2M1 160-435 (UniProt Q96CW1); experiment: peptide-bead pull-down, Coomassie; settings: reference: unphosphorylated peptide YMPMS
[2] = biological target: AP2M1 160-435 (UniProt Q96CW1); experiment: isothermal titration calorimetry; settings: reference: unphosphorylated peptide YMPMS; sites S616
[3] = biological target: GFP-AP2B1 full length (FL) (UniProt P63010); experiment: co-immunoprecipitation (anti-Myc IP, anti-AP2B1 blot, band quantification); settings: 293FT cells transfected with GFP-AP2B1 and Myc-BUBR1; n = 3 independent experiments; parent: 1
Chain of UniProt P63010 (P63010 whole entry, the tested form may be a part): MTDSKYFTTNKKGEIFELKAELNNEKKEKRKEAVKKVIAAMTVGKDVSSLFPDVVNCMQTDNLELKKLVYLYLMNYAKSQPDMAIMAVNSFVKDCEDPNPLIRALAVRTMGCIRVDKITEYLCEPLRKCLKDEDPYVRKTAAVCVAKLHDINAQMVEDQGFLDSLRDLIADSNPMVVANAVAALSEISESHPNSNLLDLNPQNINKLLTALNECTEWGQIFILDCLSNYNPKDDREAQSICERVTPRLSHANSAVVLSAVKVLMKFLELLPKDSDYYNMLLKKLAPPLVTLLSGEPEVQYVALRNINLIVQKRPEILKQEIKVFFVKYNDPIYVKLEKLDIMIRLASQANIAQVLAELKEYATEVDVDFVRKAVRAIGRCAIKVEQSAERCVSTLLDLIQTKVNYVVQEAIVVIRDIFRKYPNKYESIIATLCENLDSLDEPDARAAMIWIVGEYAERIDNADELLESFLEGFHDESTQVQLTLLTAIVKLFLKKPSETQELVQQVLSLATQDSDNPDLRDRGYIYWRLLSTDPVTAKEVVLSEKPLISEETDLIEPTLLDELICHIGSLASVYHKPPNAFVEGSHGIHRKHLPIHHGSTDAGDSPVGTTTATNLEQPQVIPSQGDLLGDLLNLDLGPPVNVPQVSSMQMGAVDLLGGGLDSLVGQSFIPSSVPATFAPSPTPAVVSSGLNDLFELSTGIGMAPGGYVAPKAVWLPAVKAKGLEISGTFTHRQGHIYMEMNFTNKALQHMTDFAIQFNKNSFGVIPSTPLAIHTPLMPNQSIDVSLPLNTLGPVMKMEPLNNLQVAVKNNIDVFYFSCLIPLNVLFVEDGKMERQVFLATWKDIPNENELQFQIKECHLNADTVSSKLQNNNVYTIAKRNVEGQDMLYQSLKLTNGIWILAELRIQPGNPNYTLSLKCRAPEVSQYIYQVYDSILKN

[4] = biological target: AP2M1 (residues 160–435) (human) (UniProt Q96CW1); experiment: ITC; MicroCal ITC200, 20 °C, 25 mM HEPES pH 7.5, 50 mM NaCl; AP2M1 (160–435) 50 µM in the cell, IRS1 peptide (about 0.5 mM) injected

Chain of UniProt Q96CW1 (Q96CW1 160-435): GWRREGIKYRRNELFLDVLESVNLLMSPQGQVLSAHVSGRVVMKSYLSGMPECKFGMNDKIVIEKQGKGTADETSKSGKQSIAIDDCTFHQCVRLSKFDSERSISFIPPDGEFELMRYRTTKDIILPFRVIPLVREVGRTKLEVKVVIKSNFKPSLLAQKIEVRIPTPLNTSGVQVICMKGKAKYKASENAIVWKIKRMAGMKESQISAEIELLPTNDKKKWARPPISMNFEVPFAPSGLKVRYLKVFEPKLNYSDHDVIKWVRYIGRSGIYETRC

Row | Substance | ratio to parent [3] | other results
1 | IRS1 607-620 (from UniProt P35568) YMPMpS peptide |  | binding against the reference ([1]; sites S616): stronger; KD [2]: stronger; reference 2.03 µM
2 | IRS1 607-620 (from UniProt P35568) pYMPMS peptide |  | binding against the reference ([1]; sites Y612): lost
3 | Myc-BUBR1 full length (WT) (from UniProt O60566) ΔD2 | 0.72 | 
4 | Myc-BUBR1 full length (WT) (from UniProt O60566) ΔKEN1 | 1.31 | 
5 | Myc-BUBR1 full length (WT) (from UniProt O60566) ΔKEN2 | 0.94 | 
6 | Myc-BUBR1 full length (WT) (from UniProt O60566) ΔPhe | 0.75 | 
7 | Myc-BUBR1 full length (WT) (from UniProt O60566) ΔPhe; ΔD2 | 0.67 | 
8 | phospho-serine IRS1 peptide (pS-IRS1; YMPMpS) |  | pKd [4]: 6.55
9 | unphosphorylated IRS1 peptide (YMPMS) |  | pKd [4]: 5.69

From paper PMC6443781
